Results taken from article PMC4072508, “Genome-Wide Prediction and Validation of Peptides That Bind Human Prosurvival Bcl-2 Proteins” (PLoS Computational Biology, 2014).

T1: Bcl-w, Q92843
T1 chain: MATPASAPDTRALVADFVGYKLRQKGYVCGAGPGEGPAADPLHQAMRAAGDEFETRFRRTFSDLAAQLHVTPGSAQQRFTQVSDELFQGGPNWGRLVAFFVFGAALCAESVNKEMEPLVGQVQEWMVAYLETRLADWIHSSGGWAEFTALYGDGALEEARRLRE

T2: Bfl-1, Q16548
T2 chain: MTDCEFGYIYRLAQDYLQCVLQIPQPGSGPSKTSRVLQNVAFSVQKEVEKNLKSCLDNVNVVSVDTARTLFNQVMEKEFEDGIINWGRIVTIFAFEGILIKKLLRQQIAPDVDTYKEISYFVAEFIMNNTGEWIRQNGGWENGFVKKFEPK

T3: Mcl-1, Q07820
T3 chain: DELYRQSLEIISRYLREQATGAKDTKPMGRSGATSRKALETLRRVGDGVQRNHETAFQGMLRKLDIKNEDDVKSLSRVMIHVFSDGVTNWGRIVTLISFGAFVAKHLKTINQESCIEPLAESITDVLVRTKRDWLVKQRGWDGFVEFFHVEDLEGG

T4: Bcl-2, P10415
T4 chain: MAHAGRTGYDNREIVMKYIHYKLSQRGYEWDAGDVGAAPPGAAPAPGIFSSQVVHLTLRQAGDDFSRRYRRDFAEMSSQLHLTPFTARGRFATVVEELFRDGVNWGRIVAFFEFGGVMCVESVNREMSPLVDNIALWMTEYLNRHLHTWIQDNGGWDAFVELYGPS


How the values were obtained:
Bcl-xL, Q07817 = experiment: peptide SPOT array, c-Myc-tagged receptor at 1 uM or 100 nM, anti-c-Myc-Cy3
Bcl-w, Q92843 [1] = biological target: T1, Bcl-w, Q92843; experiment: as above
Bcl-2, P10415 [2] = experiment: as above
Bfl-1, Q16548 [3] = biological target: T2, Bfl-1, Q16548; experiment: as above
Mcl-1, Q07820 [4] = biological target: T3, Mcl-1, Q07820; experiment: as above
Bcl-w, Q92843 [5] = biological target: T1, Bcl-w, Q92843; experiment: fluorescence polarisation, direct titration of receptor into 10 nM labelled peptide
Bcl-2, P10415 [6] = biological target: T4, Bcl-2, P10415; experiment: as above
Bfl-1, Q16548 [7] = biological target: T2, Bfl-1, Q16548; experiment: as above
Mcl-1, Q07820 [8] = biological target: T3, Mcl-1, Q07820; experiment: as above

Chain of Bcl-xL, Q07817 (Q07817 1-209): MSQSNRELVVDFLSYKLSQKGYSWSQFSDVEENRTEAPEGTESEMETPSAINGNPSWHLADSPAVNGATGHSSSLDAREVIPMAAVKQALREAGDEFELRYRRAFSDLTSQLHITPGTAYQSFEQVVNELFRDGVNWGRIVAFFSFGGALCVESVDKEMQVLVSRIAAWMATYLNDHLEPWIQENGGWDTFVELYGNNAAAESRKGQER

Row | SPOT signal as a fraction of Bim BH3's signal on the same receptor and array (Bcl-xL, Q07817) | SPOT signal as a fraction of Bim BH3's signal on the same receptor and array (Bcl-w, Q92843 [1]) | SPOT signal as a fraction of Bim BH3's signal on the same receptor and array (Bcl-2, P10415 [2]) | SPOT signal as a fraction of Bim BH3's signal on the same receptor and array (Bfl-1, Q16548 [3]) | SPOT signal as a fraction of Bim BH3's signal on the same receptor and array (Mcl-1, Q07820 [4]) | Kd (Bcl-w, Q92843 [5]) | Kd (Bcl-2, P10415 [6]) | Kd (Bfl-1, Q16548 [7]) | Kd (Mcl-1, Q07820 [8]) | Binder
1 | 0.28 | 0.21 | 0.05 | 0.19 | 0.11 | – | – | – | – | DNHKKKTVKMLEYLGKDVLHGVFNYL [CASP5]
2 | – | – | – | 0.25 | – | 64 nM | 264 nM | 43 nM | – | SWFIQSLCAMLKQYADKLEFMHILTR [CASP3]
3 | 0.03 | 0.02 | 0.01 | 0.02 | 0.02 | – | – | – | – | SVGGRGISSKLDSLADELKFVPIIGI [SACS]
4 | 0.39 | 0.2 | 0.09 | 0.38 | 0.14 | – | – | – | – | DISLSNSGFKLVNFGCDYHQYRDKFS [PION]
5 | 0.04 | 0.03 | 0.01 | 0.02 | 0.04 | – | – | – | – | VAGYRESAAFLLRSADELENLILQQN [NOL4]
6 | 0.12 | 0.07 | 0.04 | 0.13 | 0.06 | – | – | – | – | GDRAGGRSWCLRRVGMSAGWLLLEDG [RNF8]
7 | – | – | – | – | – | 13 nM | 0.3 nM | 1 nM | 23 nM | DAIIQMIVELLKRVGDQWEEEQSLAS [c6orf222]
8 | – | – | – | 0.03 | – | > 4350 nM | > 3040 nM | > 3370 nM | – | KIETTPESRYLAQIGDSVSLTCSTTG [VCAM1]
9 | 0.02 | 0.02 | 0.01 | 0.02 | 0.02 | – | – | – | – | ADLYEEAAENLHQLSDKLPAPGRAMV [MTBP]
10 | 0.03 | 0.02 | 0.01 | 0.02 | 0.02 | – | – | – | – | AAVGNHVAKLLQSIGQAPESISEKEL [NAE1]
11 | 0.04 | 0.03 | 0.01 | 0.02 | 0.07 | – | – | – | – | DLTDKLVSFYLETYGAELTANVLRDM [PYCARD]
12 | 0.32 | 0.12 | 0.03 | 0.19 | 0.14 | 992 nM | 49 nM | 99 nM | 69 nM | LRGSGAWGLLLRRVGDDVLVHLLARC [TERT]
13 | 0.06 | 0.03 | 0.02 | 0.04 | 0.04 | – | – | – | – | TIHFNQRGTRLASSGDDLRVIVWDWV [DCAF8L1]
14 | 0.57 | 0.05 | 0.02 | 0.05 | 0.03 | – | – | – | – | KYDPSKYCHNLKKIGEDFSNTIPISS [NOL8]
15 | 0.52 | 0.59 | 0.15 | 0.45 | 0.27 | – | – | – | – | IKKSVTKGEMLKIVGKRFREHFPEIL [MAGEB2]
16 | 0.15 | 0.08 | 0.02 | 0.05 | 0.06 | – | – | – | – | SATHDEAVQVLKKTGKEVVLEVKYMK [SNTA1]
17 | 0.28 | 0.14 | 0.05 | 0.15 | 0.1 | – | – | – | – | LQLHRVLPPDLKSLGDQYVKDEFRRH [ACN9]
18 | 0.26 | 0.26 | 0.03 | 0.23 | 0.12 | – | – | – | – | KEFLALASSSLLKIGQETDKTTTRNR [NCKAP1]
19 | 0.41 | 0.11 | 0.06 | 0.16 | 0.08 | – | – | – | – | LGRTGQVCLFLKRGADQHALDQEQRD [ACAP3]
20 | 0.03 | 0.02 | 0.01 | 0.02 | 0.02 | – | – | – | – | FMEKLDNGALLCQLAETMQEKFKESM [GAS2]
21 | 0.1 | 0.3 | 0.07 | 0.25 | 0.3 | – | – | – | – | PEDLQDVGWFLHKLSQQILKKEKEKK [TLR5]
